Experimental data from IntAct's records for PubMed 18172500.

B1: Aprataxin and PNK-like factor (Homo sapiens), Q8IW19 (parent)
chain: MSGGFELQPRDGGPRVALAPGETVIGRGPLLGITDKRVSRRHAILEVAGGQLRIKPIHTNPCFYQSSEKSQLLPLKPNLWCYLNPGDSFSLLVDKYIFRILSIPSEVEMQCTLRNSQVLDEDNILNETPKSPVINLPHETTGASQLEGSTEIAKTQMTPTNSVSFLGENRDCNKQQPILAERKRILPTWMLAEHLSDQNLSVPAISGGNVIQGSGKEEICKDKSQLNTTQQGRRQLISSGSSENTSAEQDTGEECKNTDQEESTISSKEMPQSFSAITLSNTEMNNIKTNAQRNKLPIEELGKVSKHKIATKRTPHKEDEAMSCSENCSSAQGDSLQDESQGSHSESSSNPSNPETLHAKATDSVLQGSEGNKVKRTSCMYGANCYRKNPVHFQHFSHPGDSDYGGVQIVGQDETDDRPECPYGPSCYRKNPQHKIEYRHNTLPVRNVLDEDNDNVGQPNEYDLNDSFLDDEEEDYEPTDEDSDWEPGKEDEEKEDVEELLKEAKRFMKRK
B2: E3 ubiquitin-protein ligase CHFR (Homo sapiens), Q96EP1-1 (parent)
chain: MERPEEGKQSPPPQPWGRLLRLGAEEGEPHVLLRKREWTIGRRRGCDLSFPSNKLVSGDHCRIVVDEKSGQVTLEDTSTSGTVINKLKVVKKQTCPLQTGDVIYLVYRKNEPEHNVAYLYESLSEKQGMTQESFEANKENVFHGTKDTSGAGAGRGADPRVPPSSPATQVCFEEPQPSTSTSDLFPTASASSTEPSPAGRERSSSCGSGGGGISPKGSGPSVASDEVSSFASALPDRKTASFSSLEPQDQEDLEPVKKKMRGDGDLDLNGQLLVAQPRRNAQTVHEDVRAAAGKPDKMEETLTCIICQDLLHDCVSLQPCMHTFCAACYSGWMERSSLCPTCRCPVERICKNHILNNLVEAYLIQHPDKSRSEEDVQSMDARNKITQDMLQPKVRRSFSDEEGSSEDLLELSDVDSESSDISQPYVVCRQCPEYRRQAAQPPHCPAPEGEPGAPQALGDAPSTSVSLTTAVQDYVCPLQGSHALCTCCFQPMPDRRAEREQDPRVAPQQCAVCLQPFCHLYWGCTRTGCYGCLAPFCELNLGDKCLDGVLNNNSYESDILKNYLATRGLTWKNMLTESLVALQRGVFLLSDYRVTGDTVLCYCCGLRSFRELTYQYRQNIPASELPVAVTSRPDCYWGRNCRTQVKAHHAMKFNHICEQTRFKN

Variants of: B1
Conditions: with parp1_human PARP1, P09874
Target sequence in this assay (P09874 whole entry): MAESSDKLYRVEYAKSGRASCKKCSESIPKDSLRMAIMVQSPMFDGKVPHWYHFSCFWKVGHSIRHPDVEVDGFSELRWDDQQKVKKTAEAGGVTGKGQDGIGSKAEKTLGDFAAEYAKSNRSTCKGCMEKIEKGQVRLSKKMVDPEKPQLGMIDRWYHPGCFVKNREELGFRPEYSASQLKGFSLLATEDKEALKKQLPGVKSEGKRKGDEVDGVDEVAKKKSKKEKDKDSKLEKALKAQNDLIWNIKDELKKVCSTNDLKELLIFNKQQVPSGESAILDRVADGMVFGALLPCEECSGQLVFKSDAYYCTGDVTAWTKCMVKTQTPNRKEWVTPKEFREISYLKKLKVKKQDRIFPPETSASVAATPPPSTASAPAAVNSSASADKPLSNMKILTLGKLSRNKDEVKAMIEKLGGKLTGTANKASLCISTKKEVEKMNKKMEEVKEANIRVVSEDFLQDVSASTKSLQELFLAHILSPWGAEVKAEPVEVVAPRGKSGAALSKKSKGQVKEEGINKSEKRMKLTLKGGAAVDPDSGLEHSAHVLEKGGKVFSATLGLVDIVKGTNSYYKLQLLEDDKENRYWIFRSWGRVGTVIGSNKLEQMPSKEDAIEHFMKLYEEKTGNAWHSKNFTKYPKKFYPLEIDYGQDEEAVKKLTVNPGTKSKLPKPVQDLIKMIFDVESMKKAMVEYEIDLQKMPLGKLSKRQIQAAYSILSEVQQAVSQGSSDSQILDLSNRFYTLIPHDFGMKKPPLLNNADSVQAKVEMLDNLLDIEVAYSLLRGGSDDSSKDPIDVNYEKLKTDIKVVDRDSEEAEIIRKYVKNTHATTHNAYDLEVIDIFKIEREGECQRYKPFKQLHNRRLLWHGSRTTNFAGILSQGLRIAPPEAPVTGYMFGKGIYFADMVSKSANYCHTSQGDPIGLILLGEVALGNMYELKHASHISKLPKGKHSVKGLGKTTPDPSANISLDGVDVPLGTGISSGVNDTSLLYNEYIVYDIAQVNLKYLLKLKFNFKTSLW

Variant	effect of a mutation on the interaction
MSGGFELQPRDGGPRVALAPGETVIGRGPLLGITDKRVSRRHAILEVAGGQLRIKPIHTNPCFYQSSEKSQLLPLKPNLWCYLNPGDSFSLLVDKYIFRILSIPSEVEMQCTLRNSQVLDEDNILNETPKSPVINLPHETTGASQLEGSTEIAKTQMTPTNSVSFLGENRDCNKQQPILAERKRILPTWMLAEHLSDQNLSVPAISGGNVIQGSGKEEICKDKSQLNTTQQGRRQLISSGSSENTSAEQDTGEECKNTDQEESTISSKEMPQSFSAITLSNTEMNNIKTNAQRNKLPIEELGKVSKHKIATKRTPHKEDEAMSCSENCSSAQGDSLQDESQGSHSESSSNPSNPETLHAKATDSVLQGSEGNKVKRTSAMYGANAYRKNPVHFQHFSHPGDSDYGGVQIVGQDETDDRPEAPYGPSAYRKNPQHKIEYRHNTLPVRNVLDEDNDNVGQPNEYDLNDSFLDDEEEDYEPTDEDSDWEPGKEDEEKEDVEELLKEAKRFMKRK [C379A;C385A;C421A;C427A]	disrupting interaction

Variants of: B2
Conditions: with parp1_human PARP1, P09874
Target sequence in this assay (P09874 whole entry): as the sequence (P09874 whole entry) above

Variant	effect of a mutation on the interaction
C635A;C641A	disrupting interaction
